Test results published in publication doi:10.1101/2020.12.15.422995.

Target: T1, Fur (PerR homolog), 17.4 kDa (Bacillus subtilis, UniProt P54574 1-149)
T1 sequence: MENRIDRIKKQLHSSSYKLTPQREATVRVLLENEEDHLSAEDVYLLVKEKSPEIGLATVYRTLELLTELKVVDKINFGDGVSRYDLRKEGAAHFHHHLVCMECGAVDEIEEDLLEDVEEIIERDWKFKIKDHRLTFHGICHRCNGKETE
Test: EMSA

B1: 54-bp degenerate sloR promoter (Deg_sloR_CC1) (dsDNA)
DNA 1: CCTGATAGGATGATGGATAATTAAGGCTTTTATCCACTTTTTACTGACATTTTG
DNA 2: CAAAATGTCAGTAAAAAGTGGATAAAAGCCTTAATTATCCATCATCCTATCAGG
binding signal: 63 % band shift at 60 nM Fur (relative to 400 nM)
